# According to patent US11312781B2, “Antigen binding molecules that bind LIGHT” (Capella Bioscience Ltd., priority 2018, dated 2022):
# Target: T1, LIGHT protein (Homo sapiens, UniProt O43557, K214E)
# T1 construct: amino acids 74-240 LIGHT (R&D Systems, 664-LI-025); purchased R&D Systems 664-LI-025
# Assay: Hydrogen-deuterium exchange (HDX) mass spectrometry epitope mapping
# Type: binding
# Design: Difference uptake (3B04-control) / Uptake 3B04: unit not given here
# Conditions: for Uptake 3B04: average deuterium uptake n = 3
# Protocol: The LIGHT protein (R&D Systems 664-LI-025) was solubilised in PBS buffer at a final concentration of 8 μM, whereas the antibodies were maintained at 20 μM in PBS. For complex formation the LIGHT protein was incubated with each antibody separately in 1:5 ratio on ice and HDX measurements were performed 30 min after incubation. All data were recorded on a waters Synapt G2Si equipped with a HDX platform. […] […] Subsequently each sample was quenched with 50 μL of 2M guanidinium chloride in at pH 2. The samples were passed through a pepsin column for 5 min to digest the protein and peptides were separated using a reverse phase chromatography. Data were analysed with DynamX software. Peptides were selected with a maximum length of 15 amino acids and a 5 ppm mass accuracy error. […] The analysis was repeated 3 times for each mAb.
# HDX was used as a starting point to identify the epitope of antibody 3B04 binding to the LIGHT protein. A sequence coverage of 69.2% of the LIGHT protein was achieved and the regions that were not observed were due to the presence of a […] and glycosylation. The glycans were not removed from LIGHT in order to preserve the structure of the protein in a native state. […] (Difference in uptake between 3B04 and control mAb, Table 16, values in bold). […] The results from HDX spectrometry were used as a guide to identify a region of interest that was subsequently analysed using alanine scanning.
# [1] = LIGHT peptide 194-202 SRVWWDSSF, Exposure (sec) 0.33
# [2] = LIGHT peptide 194-202 SRVWWDSSF, Exposure (sec) 1.00
# [3] = LIGHT peptide 194-202 SRVWWDSSF, Exposure (sec) 5.00
# [4] = LIGHT peptide 194-202 SRVWWDSSF, Exposure (sec) 30.00
# [5] = LIGHT peptide 195-202 RVWWDSSF, Exposure (sec) 0.33
# [6] = LIGHT peptide 195-202 RVWWDSSF, Exposure (sec) 1.00
# [7] = LIGHT peptide 195-202 RVWWDSSF, Exposure (sec) 5.00
# [8] = LIGHT peptide 195-202 RVWWDSSF, Exposure (sec) 30.00
# [9] = LIGHT peptide 197-202 WWDSSF, Exposure (sec) 0.33
# [10] = LIGHT peptide 197-202 WWDSSF, Exposure (sec) 1.00
# [11] = LIGHT peptide 197-202 WWDSSF, Exposure (sec) 5.00
# [12] = LIGHT peptide 197-202 WWDSSF, Exposure (sec) 30.00
# [13] = LIGHT peptide 203-209 LGGVVHL, Exposure (sec) 0.33
# [14] = LIGHT peptide 203-209 LGGVVHL, Exposure (sec) 1.00
# [15] = LIGHT peptide 203-209 LGGVVHL, Exposure (sec) 5.00
# [16] = LIGHT peptide 203-209 LGGVVHL, Exposure (sec) 30.00
# [17] = LIGHT peptide 203-214 LGGVVHLEAGEE, Exposure (sec) 0.33
# [18] = LIGHT peptide 203-214 LGGVVHLEAGEE, Exposure (sec) 1.00
# [19] = LIGHT peptide 203-214 LGGVVHLEAGEE, Exposure (sec) 5.00
# [20] = LIGHT peptide 203-214 LGGVVHLEAGEE, Exposure (sec) 30.00
# T1 sequence (O43557 74-240 K214E): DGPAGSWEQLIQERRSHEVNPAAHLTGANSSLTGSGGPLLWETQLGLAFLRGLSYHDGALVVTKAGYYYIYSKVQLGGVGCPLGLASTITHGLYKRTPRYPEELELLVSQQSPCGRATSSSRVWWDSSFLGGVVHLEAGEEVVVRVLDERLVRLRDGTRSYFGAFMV
molecule,measurement,setting,value
"3B04: parental mouse anti-membrane LIGHT antibody, VL SEQ ID NO 1, VH SEQ ID NO 5; tested as chimeric human IgG4 mAb (antibody, listed as Homo sapiens, V domains shown) VH: QVQLQQPGAELVRPGASVTLSCKASGYTFTDYEMHWVKQTPVHGLEWIGEIDPETGDTAYSQKFKGKATLTADKSSSTAYMEFRSLTSEDSAVYYCSRETDYFFDYWGQGTTLTVSS VL: DIQMTQTPASLSASVGETVTITCGASENIYGALNWYQRKQGKSPQLLIYGATNLADGMSSRFSGSGSGRQYSLKISSLHPDDFATYYCQNVLTTPWTFGGGTKLEIKR",Difference uptake (3B04-control),[1],−0.296
same,Uptake 3B04,[1],0.744
same,Difference uptake (3B04-control),[2],−0.443
same,Uptake 3B04,[2],0.885
same,Difference uptake (3B04-control),[3],−0.405
same,Uptake 3B04,[3],1.159
same,Difference uptake (3B04-control),[4],−0.656
same,Uptake 3B04,[4],1.392
same,Difference uptake (3B04-control),[5],−0.254
same,Uptake 3B04,[5],0.393
same,Difference uptake (3B04-control),[6],−0.399
same,Uptake 3B04,[6],0.480
same,Difference uptake (3B04-control),[7],−0.474
same,Uptake 3B04,[7],0.631
same,Difference uptake (3B04-control),[8],−0.756
same,Uptake 3B04,[8],0.805
same,Difference uptake (3B04-control),[9],−0.187
same,Uptake 3B04,[9],0.240
same,Difference uptake (3B04-control),[10],−0.269
same,Uptake 3B04,[10],0.336
same,Difference uptake (3B04-control),[11],−0.217
same,Uptake 3B04,[11],0.501
same,Difference uptake (3B04-control),[12],−0.252
same,Uptake 3B04,[12],0.603
same,Difference uptake (3B04-control),[13],−0.029
same,Uptake 3B04,[13],0.145
same,Difference uptake (3B04-control),[14],−0.027
same,Uptake 3B04,[14],0.147
same,Difference uptake (3B04-control),[15],−0.014
same,Uptake 3B04,[15],0.237
same,Difference uptake (3B04-control),[16],−0.052
same,Uptake 3B04,[16],0.384
same,Difference uptake (3B04-control),[17],−0.050
same,Uptake 3B04,[17],0.202
same,Difference uptake (3B04-control),[18],−0.033
same,Uptake 3B04,[18],0.266
same,Difference uptake (3B04-control),[19],−0.087
same,Uptake 3B04,[19],0.399
same,Difference uptake (3B04-control),[20],−0.081
same,Uptake 3B04,[20],0.807
same,Epitope defined by HDX,soluble LIGHT,residues 195-197 of soluble LIGHT
